Changes are numbered by the printed parent chain.
Key:
[1] = biological target: T1, human serum amyloid P component (SAP), purified (Homo sapiens, UniProt P02743 20-223); assay: ELISA, 1 ug/mL human SAP directly immobilised
T1 construct: Immobilised directly, amine-coupled, captured on O-phosphoethanolamine or by sheep polyclonal antibody, depending on the assay; also called human SAP; native human SAP
Procedure: (§1) 1 μg/mL human SAP was directly immobilised onto an ELISA plate and blocked with 1% BSA/TBS plus 0.05% TWEEN20. Anti-SAP antibodies from the test supernatants or purified material were titrated across the plate. Bound antibody was detected by treatment with goat anti-human Kappa Light Chains peroxidase conjugate (Sigma, A7164). The ELISA was developed using O-phenylenediamine dihydrochloride (OPD) peroxidase substrate (Sigma, P9187).

[2] = biological target: T1, human serum amyloid P component (SAP), …; assay: Biacore, human SAP amine-coupled on CM3 chip, bivalent analyte model
Procedure: Human SAP was immobilised on a Biacore CM3 chip by primary amine coupling in accordance with the manufacturer's instructions. […] All runs were double referenced with a buffer injection over the human SAP surface. Analysis was carried out at 25° C. using HBS-EP buffer.

[3] = biological target: T1, human serum amyloid P component (SAP), …; assay: Biacore, human SAP amine-coupled on C1 chip, culture supernatant, 1 to 1 dissociation model, single curve
Procedure: Human and cynomologus monkey SAP were immobilised on a Biacore C1 chip by primary amine coupling in accordance with the manufacturer's instructions. […] All runs were double referenced with a buffer injection for purified sample or media for the supernatant samples over the human and cyno SAP surfaces. Analysis was carried out at 25° C. using HBS-EP buffer. […] Data were analysed using the 1 to 1 dissociation model within the Biacore T100 evaluation software.
The values were based on a single curve and used for ranking purposes between the different constructs for binding to human SAP.

[4] = biological target: T1, human serum amyloid P component (SAP), …; assay: direct ELISA, human SAP coated at 1 µg/mL, detection with goat anti-human kappa light chain peroxidase conjugate
Procedure: as §1

[5] = biological target: T1, human serum amyloid P component (SAP), …; assay: Biacore kinetics, human SAP captured on immobilised O-phosphoethanolamine; alanine at position 91 of L0, not wild-type H3L0
Procedure: (§2) O-phosphoethanolamine was immobilised on a Biacore CM5 chip by primary amine coupling in accordance with the manufacturer's instructions. Human SAP was then captured on the surface in the presence of calcium chloride, in order to replicate in the Biacore system in vitro, the precise orientation of SAP molecules bound to amyloid fibrils in vivo. Anti SAP antibodies were then passed over this surface at 256, 64, 16, 4, 1 nM and a binding sensorgrams obtained. Analysis was carried out at 25° C. using 4% BSA, 10 mM Tris, 140 mM NaCl, 2 mM CaCl₂, 0.05% surfactant P20, 0.02% Na N₃, pH 8.0 as running buffer. […] Data generated were double referenced with a buffer injection over the human SAP surface and analyzed using the bivalent analyte model in the Biacore T100 evaluation software.

[6] = biological target: T1, human serum amyloid P component (SAP), …; assay: binding ELISA and Biacore off-rate ranking
[7] = biological target: T2, isolated pure human C-reactive protein (CRP) (human, UniProt P02741 19-224); assay: western blot from SDS-PAGE
T2 construct: also called human CRP
T2 sequence (looked up): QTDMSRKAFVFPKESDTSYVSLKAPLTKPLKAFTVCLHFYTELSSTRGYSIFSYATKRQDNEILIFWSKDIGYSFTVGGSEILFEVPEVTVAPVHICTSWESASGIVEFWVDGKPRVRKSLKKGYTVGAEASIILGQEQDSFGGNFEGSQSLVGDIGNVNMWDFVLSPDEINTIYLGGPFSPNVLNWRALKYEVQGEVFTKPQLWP

[8] = biological target: T3, human SAP N-terminal 1-158-homoserine lactone polypeptide (CNBr cleavage fragment) (Homo sapiens, position 159 converted from methionine to homoserine lactone); assay: western blot from SDS-PAGE
T3 construct: Tested in western blot from SDS-PAGE; also called approximately 20 kD fragment
T3 chain: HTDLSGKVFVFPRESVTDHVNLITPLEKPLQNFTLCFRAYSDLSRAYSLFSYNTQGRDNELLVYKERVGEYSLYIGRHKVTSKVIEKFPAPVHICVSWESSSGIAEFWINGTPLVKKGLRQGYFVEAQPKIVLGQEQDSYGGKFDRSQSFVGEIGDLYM

[9] = biological target: T4, human SAP 1-140 fragment (chymotrypsin digestion in the absence of calcium) (Homo sapiens); assay: western blot from SDS-PAGE
T4 construct: Tested in western blot from SDS-PAGE; also called residue 1-140 fragment
T4 chain: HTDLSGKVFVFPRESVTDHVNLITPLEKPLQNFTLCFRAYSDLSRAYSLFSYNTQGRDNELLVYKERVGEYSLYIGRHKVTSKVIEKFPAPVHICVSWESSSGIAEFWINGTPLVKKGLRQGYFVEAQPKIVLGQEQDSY

[10] = biological target: T1, human serum amyloid P component (SAP), …; assay: direct ELISA, human SAP coated at 5 µg/mL, detection with HRP rabbit anti-mouse IgG
Procedure: (§3) 1 μg/mL or 5 μg/mL human SAP was directly immobilised onto an ELISA plate and blocked with 1% BSA/TBS plus 0.05% TWEEN20. Anti-SAP antibodies from purified material were titrated across the plate. Bound antibody was detected by treatment with a horse-radish peroxidase (HRP)-conjugated rabbit-anti-mouse IgG antibody (Dako, P0260). The ELISA was developed using O-phenylenediamine dihydrochloride (OPD) peroxidase substrate (Sigma, P9187).

[11] = biological target: T1, human serum amyloid P component (SAP), …; assay: Biacore (BIAcoreX), human SAP covalently immobilised on the chip; mean and SD of 3 replicates
[12] = biological target: T1, human serum amyloid P component (SAP), …; assay: Biacore, human SAP captured on immobilised O-phosphoethanolamine (CM5 chip, calcium), bivalent analyte model
Procedure: as §2

[13] = biological target: T1, human serum amyloid P component (SAP), …; assay: Biacore, human SAP captured on immobilised O-phosphoethanolamine (CM5 chip, calcium), bivalent analyte model; kd outside the Biacore measurement range
Procedure: as §2

[14] = biological target: T1, human serum amyloid P component (SAP), …; assay: Biacore (BIAcoreX), human SAP covalently immobilised on the chip; mean and SD of 3 replicates; human SAP covalently immobilised on the chip; mean of 3 replicates
[15] = biological target: T1, human serum amyloid P component (SAP), …; assay: competition ELISA, human SAP coated at 5 µg/mL, constant SAP-E chimera (cSAP-E) as competitor, bound chimera detected with goat anti-human kappa light chain peroxidase conjugate
From the text: A constant concentration of chimeric anti-SAP mAb was mixed with serial diluted (1:1) amounts of mouse anti-SAP mAbs. Plates were washed and the amount of chimeric antibody bound to the immobilised human SAP was detected using goat anti-human Kappa Light chain peroxidase conjugate (Sigma, A7164). The ELISA was developed using O-phenylenediamine dihydrochloride (OPD) peroxidase substrate (Sigma, P9187).

[16] = biological target: T1, human serum amyloid P component (SAP), …; assay: direct ELISA, human SAP coated at 1 µg/mL, detection with HRP rabbit anti-mouse IgG
Procedure: as §3

B1: SAP-K H1L0 humanised antibody (antibody, V domains shown)
VH: QVQLVQSGAEVKKPGSSVKVSCKASGYTFTSYWMHWVRQAPGQGLEWMGMIHPNSVNTNYNEKFKSRVTITADKSTSTAYMELSSLRSEDTAVYYCARRNDYYWYFDVWGQGTLVTVSS
VL: DIQMTQSPSSLSASVGDRVTITCKASQNVNSNVAWYQQKPGKAPKLLIYSASYRYSGVPSRFSGSGSGTDFTLTISSLQPEDFATYYCQQCNNYPFTFGQGTKLEIK
Question: B1 was tested. Which “fold loss of human SAP binding activity compared to the SAP-K chimera” value [1] did it give?
Answer: ~2 fold

Question: What about the Kd [2] of the same binder?
Answer: 155 nM

Question: And the koff [2]?
Answer: 0.0178 s⁻¹

Question: And the kon [2]?
Answer: 115000 M⁻¹ s⁻¹

Question: What about the koff [3] of the same binder?
Answer: 0.0171 s⁻¹

Question: And the “EC50 (read off the curve)” value [4]?
Answer: ~0.1 µg/mL

B2: SAP-K H3 with L0 91A humanised light chain variant (antibody, human IgG1, V domains shown)
VH: B1 VH with M48I, V68A, I70L, A72V
VL: B1 VL with C91A
notes: Human IgG1/kappa; also called variant with alanine at position 91
Question: With B2 as the binder, how does the Kd [5] read?
Answer: 0.436 nM

B3: SAP-K H2L0 humanised antibody (antibody, V domains shown)
VH: B1 VH with M48I, V68A
VL: B1 VL
Question: Which results are given for B3?
Answer: fold loss of human SAP binding activity compared to the SAP-K chimera [1]: ~2 fold; Kd [2]: 191 nM; koff [2]: 0.022 s⁻¹; kon [2]: 115000 M⁻¹ s⁻¹; koff [3]: 0.0204 s⁻¹

B4: SAP-K H1L1 humanised antibody (antibody, V domains shown)
VH: B1 VH
VL: B1 VL with L46A
Question: Which koff [3] does the source give for B4 here?
Answer: 0.0296 s⁻¹

B5: SAP-K H2L1 humanised antibody (antibody, V domains shown)
VH: B1 VH with M48I, V68A
VL: B1 VL with L46A
Question: Which koff [3] does the source give for B5 here?
Answer: 0.0321 s⁻¹

B6: SAP-K H3L1 humanised antibody (antibody, V domains shown)
VH: B1 VH with M48I, V68A, I70L, A72V
VL: B1 VL with L46A
Question: B6 was tested. Which koff [3] did it give?
Answer: 0.0236 s⁻¹

B7: SAP-K H1 with L0 91A humanised light chain variant (antibody, human IgG1, V domains shown)
VH: B1 VH
VL: B1 VL with C91A
notes: Human IgG1/kappa; also called alanine variant paired with H1
Question: Does B7 bind [6]?
Answer: binds

B8: SAP-K H0L0 humanised antibody (antibody, V domains shown)
VH: B1 VH with Y27G, T30S
VL: B1 VL
Question: Which “fold loss of human SAP binding activity compared to the SAP-K chimera” value [1] does the source give for B8 here?
Answer: ~2 fold

Question: And the Kd [2]?
Answer: 739 nM

Question: And the koff [2]?
Answer: 0.0449 s⁻¹

Question: And the kon [2]?
Answer: 60800 M⁻¹ s⁻¹

Question: What about the koff [3] of the same binder?
Answer: 0.0263 s⁻¹

B9: SAP-E mouse monoclonal anti-human SAP antibody (antibody, mouse IgG2a, V domains shown)
VH: QASLQQSGTELVRSGASVKMSCKASGFTFATYNMHWIKQTPGQGLEWIGYIYPGDGNANYNQQFKGKATLTADTSSNTAYMQISSLTSEDSAVYFCARGDFDYDGGYYFDSWGQGTTLTVSS
VL: DIQMTQSPASLSASVGETVTITCRASENIYSYLAWYQQKQGRSPQLLVHNAKTLAEGVPSRVSGSGSGTHFSLKINGLQPEDFGNYYCQHHYGAPLTFGAGTKLELK
notes: also called Mouse SAP-E; murine SAP-E
Question: What does the source list for B9?
Answer: binding result [7]: no binding (tested: 500 ng and 100 ng loaded); binding result [8]: binds; binding result [9]: binds; EC50 (read off the curve) [10]: ~0.04 µg/mL; Kd [11]: 5 nM; koff [11]: 6e-05 s⁻¹; kon [12]: 31500 M⁻¹ s⁻¹; koff [13]: < 1e-05 s⁻¹; kon [14]: 20000 M⁻¹ s⁻¹; IC50 (read off the curve) [15]: ~2 µg/mL

B10: SAP-K mouse monoclonal anti-human SAP antibody (antibody, mouse IgG2a, V domains shown)
VH: QVQLQQPGAELIKPGASVKLSCKASGYTFTSYWMHWVKQRPGQGLEWIGMIHPNSVNTNYNEKFKSKATLTVDKSSSTAYMQLNSLTSEDSAVYYCARRNDYYWYFDVWGTGTTVTVSS
VL: DIVMTQSQKFMSTSVGDRVSVTCKASQNVNSNVAWYQQKPGQSPKALIYSASYRYSGVPDRFTGSGSGTDFTLTITNVQSEDLAEYFCQQCNNYPFTFGSGTKLEIK
notes: also called Mouse SAP-K; murine SAP-K
Question: For B10, which “EC50 (read off the curve)” value [16] is on record?
Answer: ~0.04 µg/mL

Question: And the “EC50 (read off the curve)” value [10]?
Answer: ~0.02 µg/mL

Question: And the Kd [11]?
Answer: 1 nM

Question: What about the koff [11] of the same binder?
Answer: 1.7e-05 s⁻¹

Question: What about the kon [11] of the same binder?
Answer: 31800 M⁻¹ s⁻¹

Question: And the Kd [12]?
Answer: 0.73 nM

Question: And the koff [12]?
Answer: 0.000219 s⁻¹

Question: What about the kon [12] of the same binder?
Answer: 300000 M⁻¹ s⁻¹

— patent US20120225055A1 (GlaxoSmithKline, published 2012)
